{"source": "the RNAGym collection of RNA variant scans (doi:10.1093/molbev/msab373)", "parents": {"B1": {"name": "Azoarcus group I ribozyme (parent)", "chain": "GUGCCUUGCGCCGGGAAACCACGCAAGGGAUGGUGUCAAAUUCGGCGAAACCUAAGCGCCCGCCCGGGCGUAUGGCAACGCCGAGCCAAGCUUCGGCGCCUGCGCCGAUGAAGGUGUAGAGACUAGACGGCACCCACCUAAGGCAAACGCUAUGGUGAAGGCAUAGUCCAGGGAGUGGCGAAAGUCACACAAACCGG"}}, "data": [{"variants_of": "B1", "experiment": "reverse-splicing fitness (ratio to wild type); higher = more active; in vitro selection; Mg2+ level not given", "in_short": "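An in vitro group I ribozyme library with randomized positions was T7-transcribed and gel-purified. In triplicate, 10 pmol RNA in EPPS pH 7.5 was reacted with 50 pmoles of a 30-nt RNA substrate for 1 h at 37 °C across several added MgCl2 levels (1–48 mM), then stopped with EDTA. Products were reverse transcribed from a substrate-complementary primer, PCR-amplified and sequenced (HiSeq 4000). Fitness is a variant's read proportion after selection over that before, normalised to wild type.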", "values": [{"variant": "C82U A111U A120G A145G C150A C169A U176G", "reverse-splicing fitness": 0.00564}, {"variant": "C82U A111U A120G A145G C150A C169A U176A", "reverse-splicing fitness": 0.0153}, {"variant": "C82U A111U A120G A145G C150A C169A U176C", "reverse-splicing fitness": 0.02}, {"variant": "C82U A111U A120G A145G C169U U176C", "reverse-splicing fitness": 0.0159}, {"variant": "C82U A111U A120G A145G C169U U176G", "reverse-splicing fitness": 0.00458}, {"variant": "C82U A111U A120G A145G C169U U176A", "reverse-splicing fitness": 0.0196}, {"variant": "C82U A111U A120G", "reverse-splicing fitness": 0.0168}, {"variant": "C82U A111U A120G A145C C150G C169A U176A", "reverse-splicing fitness": 0.00764}, {"variant": "C82U A111U A120G A145C C150G C169A U176C", "reverse-splicing fitness": 0.006}, {"variant": "C82U A111U A120G A145C C150G C169A U176G", "reverse-splicing fitness": 0.00478}, {"variant": "C82U A111U A120G A145G C150A", "reverse-splicing fitness": 0.00801}, {"variant": "C82U A111U A120G A145G C150G", "reverse-splicing fitness": 0.00732}, {"variant": "C82U A111U A120G A145G C150U", "reverse-splicing fitness": 0.0119}, {"variant": "C82U A111U A120G A145G C150G C169U U176G", "reverse-splicing fitness": 0.00647}, {"variant": "C82U A111U A120G A145G C150G C169U U176A", "reverse-splicing fitness": 0.012}, {"variant": "C82U A111U A120G A145G C150G C169U U176C", "reverse-splicing fitness": 0.0112}, {"variant": "C82U A111U A120G A145G C150U C169A U176A", "reverse-splicing fitness": 0.0135}, {"variant": "C82U A111U A120G A145G C150U C169A U176C", "reverse-splicing fitness": 0.0123}, {"variant": "C82U A111U A120G A145G C150U C169A U176G", "reverse-splicing fitness": 0.00525}, {"variant": "C82U A111U A120G A145C C150U C169U", "reverse-splicing fitness": 0.00734}, {"variant": "C82U A111U A120G A145C C150U C169G", "reverse-splicing fitness": 0.00792}, {"variant": "C82U A111U A120G A145C C150U C169A", "reverse-splicing fitness": 0.00726}, {"variant": "C82U A111U A120G A145C C150A C169G U176A", "reverse-splicing fitness": 0.0242}, {"variant": "C82U A111U A120G A145C C150A C169G U176G", "reverse-splicing fitness": 0.00478}, {"variant": "C82U A111U A120G A145C C150A C169G U176C", "reverse-splicing fitness": 0.0136}, {"variant": "C82U A111U A120C U176G", "reverse-splicing fitness": 0.00482}, {"variant": "C82U A111U A120C U176A", "reverse-splicing fitness": 0.0144}, {"variant": "C82U A111U A120C U176C", "reverse-splicing fitness": 0.0191}, {"variant": "C82U A111U A120G A145G C150G C169A U176G", "reverse-splicing fitness": 0.00764}, {"variant": "C82U A111U A120G A145G C150G C169A U176C", "reverse-splicing fitness": 0.0113}, {"variant": "C82U A111U A120G A145G C150G C169A U176A", "reverse-splicing fitness": 0.0128}, {"variant": "C82U A111U A120G A145G C150U C169A", "reverse-splicing fitness": 0.00995}, {"variant": "C82U A111U A120G A145G C150U C169U", "reverse-splicing fitness": 0.0104}, {"variant": "C82U A111U A120G A145G C150U C169G", "reverse-splicing fitness": 0.00964}, {"variant": "C82U A111U A120G A145G C150A U176C", "reverse-splicing fitness": 0.0166}, {"variant": "C82U A111U A120G A145G C150A U176A", "reverse-splicing fitness": 0.0093}, {"variant": "C82U A111U A120G A145G C150A U176G", "reverse-splicing fitness": 0.00603}, {"variant": "C82U A111U A120G A145G C150U C169G U176G", "reverse-splicing fitness": 0.00411}, {"variant": "C82U A111U A120G A145G C150U C169G U176A", "reverse-splicing fitness": 0.0129}, {"variant": "C82U A111U A120G A145G C150U C169G U176C", "reverse-splicing fitness": 0.016}, {"variant": "C82U A111U A120G A145G C169G", "reverse-splicing fitness": 0.00995}, {"variant": "C82U A111U A120G A145G C169U", "reverse-splicing fitness": 0.00849}, {"variant": "C82U A111U A120G A145G C169A", "reverse-splicing fitness": 0.01}, {"variant": "C82U A111U A120G A145C C150A C169A U176C", "reverse-splicing fitness": 0.0062}, {"variant": "C82U A111U A120G A145C C150A C169A U176G", "reverse-splicing fitness": 0.00517}, {"variant": "C82U A111U A120G A145C C150A C169A U176A", "reverse-splicing fitness": 0.0108}, {"variant": "C82U A111U A120C C169U U176G", "reverse-splicing fitness": 0.00459}, {"variant": "C82U A111U A120G A145C C150A U176G", "reverse-splicing fitness": 0.00379}, {"variant": "C82U A111U A120G A145C C150A U176C", "reverse-splicing fitness": 0.00836}, {"variant": "C82U A111U A120G A145C C150A U176A", "reverse-splicing fitness": 0.00746}, {"variant": "C82U A111U A120G A145G C150G U176A", "reverse-splicing fitness": 0.0062}, {"variant": "C82U A111U A120G A145G C150G U176G", "reverse-splicing fitness": 0.00543}, {"variant": "C82U A111U A120G A145G C150G U176C", "reverse-splicing fitness": 0.00919}, {"variant": "C82U A111U A120G A145C C150G C169G U176G", "reverse-splicing fitness": 0.00424}, {"variant": "C82U A111U A120G A145C C150G C169G U176A", "reverse-splicing fitness": 0.00849}, {"variant": "C82U A111U A120G A145C C150G C169G U176C", "reverse-splicing fitness": 0.0069}, {"variant": "C82U A111U A120G A145C C150U C169U U176A", "reverse-splicing fitness": 0.0187}, {"variant": "C82U A111U A120G A145C C150U C169U U176G", "reverse-splicing fitness": 0.00401}, {"variant": "C82U A111U A120G A145C C150U C169U U176C", "reverse-splicing fitness": 0.00897}, {"variant": "C82U A111U A120G A145U C150A C169U", "reverse-splicing fitness": 0.0062}, {"variant": "C82U A111U A120G A145U C150A C169G", "reverse-splicing fitness": 0.00728}, {"variant": "C82U A111U A120G A145U C150A C169A", "reverse-splicing fitness": 0.00884}, {"variant": "C82U A111U A120G A145U C150A U176A", "reverse-splicing fitness": 0.0096}, {"variant": "C82U A111U A120G A145U C150A U176C", "reverse-splicing fitness": 0.0112}, {"variant": "C82U A111U A120G A145U C150A U176G", "reverse-splicing fitness": 0.00425}, {"variant": "C82U A111U A120G A145U C150G", "reverse-splicing fitness": 0.00635}, {"variant": "C82U A111U A120G A145U C150U", "reverse-splicing fitness": 0.0114}, {"variant": "C82U A111U A120G A145U C150A", "reverse-splicing fitness": 0.00808}, {"variant": "C82U A111U A120G A145G C169A U176G", "reverse-splicing fitness": 0.00433}, {"variant": "C82U A111U A120G A145G C169A U176A", "reverse-splicing fitness": 0.0205}, {"variant": "C82U A111U A120G A145G C169A U176C", "reverse-splicing fitness": 0.031}, {"variant": "C82U A111U A120G A145C C169G U176A", "reverse-splicing fitness": 0.0262}, {"variant": "C82U A111U A120G A145C C169G U176C", "reverse-splicing fitness": 0.0149}, {"variant": "C82U A111U A120G A145C C169G U176G", "reverse-splicing fitness": 0.004}, {"variant": "C82U A111U A120G A145U C150G C169G U176C", "reverse-splicing fitness": 0.00435}, {"variant": "C82U A111U A120G A145U C150G C169G U176G", "reverse-splicing fitness": 0.00385}, {"variant": "C82U A111U A120G A145U C150G C169G U176A", "reverse-splicing fitness": 0.00623}, {"variant": "C82U A111U A120G A145C C169A U176G", "reverse-splicing fitness": 0.00391}, {"variant": "C82U A111U A120G A145C C169A U176A", "reverse-splicing fitness": 0.00993}, {"variant": "C82U A111U A120G A145C C169A U176C", "reverse-splicing fitness": 0.00603}, {"variant": "C82U A111U A120G A145C C150A C169U", "reverse-splicing fitness": 0.00623}, {"variant": "C82U A111U A120G A145C C150A C169G", "reverse-splicing fitness": 0.00785}, {"variant": "C82U A111U A120G A145C C150A C169A", "reverse-splicing fitness": 0.00756}]}]}
